Results taken from patent publication US20210171624A1 (ELIXIRON IMMUNOTHERAPEUTICS HONG KONG, published 2021).

T1: recombinant human IFN-γ protein (human, UniProt P01579 24-166, limits assumed)
T1 sequence: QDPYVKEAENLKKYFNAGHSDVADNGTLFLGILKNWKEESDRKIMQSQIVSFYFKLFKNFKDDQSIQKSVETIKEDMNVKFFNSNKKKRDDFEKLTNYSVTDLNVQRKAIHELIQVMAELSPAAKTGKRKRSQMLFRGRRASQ

T2: rhesus macaque/cynomolgus IFN-γ (rhesus macaque/cynomolgus, UniProt P63310 24-165)
T2 construct: also called R&D systems 961-RM-025
T2 sequence (looked up): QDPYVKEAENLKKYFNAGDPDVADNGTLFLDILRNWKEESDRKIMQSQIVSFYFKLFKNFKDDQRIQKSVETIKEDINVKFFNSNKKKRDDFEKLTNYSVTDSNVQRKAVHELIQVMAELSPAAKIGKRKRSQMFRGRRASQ


Assays:
[1] = biological target: T1, recombinant human IFN-γ protein; test: ELISA, biotinylated human IFN-γ on streptavidin plate, HRP anti-human IgG, OD 450-650 nm
Protocol: (§1) Recombinant human IFN-γ (R&D systems 285-IF-100) and Cynomolgus IFN-γ (R&D systems 961-RM-025) were biotinylated according to kit manual (EZ-Link NHS-LC-Biotin; Thermo #21336) and bound to streptavidin coated plate respectively. After incubated at room temperature for 1-2 hours, the plate was washed three times with 300 μL wash buffer. Serial dilutions of anti-IFN-γ antibody were added to wells. After incubated at room temperature for 1-2 hours, the plate was washed three times with 300 μL wash buffer. HRP anti-Human IgG was applied to each well at room temperature for 1 hour incubation. After washing, the plates were developed with TMB substrate, and analyzed under OD₄₅₀₋₆₅₀.

[2] = biological target: T1, recombinant human IFN-γ protein; test: BLI (Octet RED96), mAb captured on AHC biosensor, recombinant human IFN-γ in solution, 1:1 model; second experiment
Protocol: (§2) Antibody-binding kinetic rate constants (kₐ and kd) were measured by Bio-Layer Interferometry (BLI, ForteBio Octet RED96). […] Rate constants were calculated by curve fitting analyses (1:1 Langmuir model) of binding response with a 5-minute association and 15-minute dissociation interaction time.

[3] = biological target: T1, recombinant human IFN-γ protein; test: cell-based or functional assay
bovine serum albumin = biological target: T3, bovine serum albumin (bovine, UniProt P02769 25-607); test: ELISA, plate coated with 2 µg/mL BSA, anti-human IgG Fc-AP detection, OD 405 nm
T3 construct: also called BSA
Protocol: A clear polystyrene 96-well, flat-bottomed plate (Nunc) was coated with 100 μL of recombinant human IFN-γ protein (2 μg/mL) or BSA (2 μg/mL) in bicarbonate buffer (pH 9.6) per well and incubated at 4° C. overnight. The plate was washed three times using phosphate-buffered saline (PBS) with 0.05% Tween 20 and then blocked with 5% human normal serum albumin (Aventis) in PBS for 2 hours at 25° C. The plate was washed again using PBS with 0.05% Tween 20, after which each of 1E8, 2F2, 2A6, 2B6, AB and BA mAbs in two different concentrations of 1 μg/mL and 0.1 μg/mL were added into the wells of the plate for binding with the recombinant human IFN-γ protein, followed by reaction at 25° C. for 2 hours. The plate was thoroughly washed using PBS with 0.05% Tween 20, and then Fc-specific alkaline phosphatase-conjugated AffiniPure Goat anti-human IgG (Cappel) was added at a dilution ratio of 1:2500. The plate was placed for 90 minutes at 37° C. and then washed five times using PBS with 0.05% Tween 20. After adding p-Nitrophenyl phosphate (pNPP) solution (100 μL/well), the plate was placed at 37° C. for 30 minutes. Absorbance was determined at OD405 nm with a VICTOR X3 Multilabel Plate Reader (PerkinElmer).

[4] = biological target: T1, recombinant human IFN-γ protein; test: BLI (Octet RED96), mAb captured on AHC biosensor, recombinant human IFN-γ in solution, 1:1 model
Protocol: as §2

[5] = biological target: T2, rhesus macaque/cynomolgus IFN-γ; test: ELISA, biotinylated rhesus macaque/cynomolgus IFN-γ on streptavidin plate, HRP anti-human IgG, OD 450-650 nm
Protocol: as §1

T3 sequence (P02769 25-607 limits assumed): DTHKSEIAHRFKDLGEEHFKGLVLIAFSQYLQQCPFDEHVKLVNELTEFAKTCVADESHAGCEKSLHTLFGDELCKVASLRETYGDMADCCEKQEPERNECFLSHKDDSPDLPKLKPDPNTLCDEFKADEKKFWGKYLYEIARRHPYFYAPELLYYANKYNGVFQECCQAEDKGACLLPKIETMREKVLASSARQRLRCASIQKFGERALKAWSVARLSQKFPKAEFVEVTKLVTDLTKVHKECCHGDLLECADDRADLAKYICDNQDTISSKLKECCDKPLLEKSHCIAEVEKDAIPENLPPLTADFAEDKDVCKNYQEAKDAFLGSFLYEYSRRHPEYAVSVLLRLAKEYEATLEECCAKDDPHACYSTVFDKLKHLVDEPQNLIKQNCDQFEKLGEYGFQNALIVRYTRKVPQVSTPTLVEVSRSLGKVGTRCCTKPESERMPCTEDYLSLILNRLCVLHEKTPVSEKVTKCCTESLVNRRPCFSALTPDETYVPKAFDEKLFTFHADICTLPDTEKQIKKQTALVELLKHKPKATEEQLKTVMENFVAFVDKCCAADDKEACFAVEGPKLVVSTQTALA

Row | EC50 (read off the curve) [1] [ng/mL] | Kd [2] [pM] | koff [2] [s⁻¹] | kon [2] [M⁻¹ s⁻¹] | IC50, inhibition of IFN-γ induced HLA-DR expression on THP-1 cells [3] [ng/mL] | IC90, inhibition of IFN-γ induced HLA-DR expression on THP-1 cells [3] [ng/mL] | binding result (bovine serum albumin) | Kd [4] [pM] | koff [4] [s⁻¹] | kon [4] [M⁻¹ s⁻¹] | EC50 (read off the curve) [5] [ng/mL] | Molecule
1 | 5 | 34.7 | 8.59e-05 | 2.48e+06 |  |  |  |  |  |  |  | AMG811 (antibody)
2 | ~7 | 18.7 | 4.9e-05 | 2.61e+06 | 3.4 | 3850 | no binding (tested: 1.0 µg/mL) | 36.8 | 3.97e-05 | 1.08e+06 | ~5 | antibody 2A6 (antibody, human IgG1, V domains shown, partial N-linked glycosylation at Asn-76 of the VH, Human antibody from a single B cell, cloned into human IgG1 lambda expression vectors and made in FreeStyle 293-F cells) VH: EVQLVESGGGLVKPGDSLTVSCVASGFTFSNYFIHWVRQAPGKGLEWVATISGRTKYMFYSDSLRGRFTVSRDNANNSVYLHMSSLRGEDTALYYCVRGYDHSDSNSAADLLHWGRGTLVTVSS VL: NFMLTQPLSVSGYPGKTIVISCVRSSGSVASHYVQWFQQRPGSAPAMVIYEDSHRPSGIPDRFSGSVDASSNSASLTISGLKTEDEADYFCQSYYGNNQVLFGGGTKLTVL
3 | ~7 | 25 | 5.46e-05 | 2.19e+06 |  |  | no binding (tested: 1.0 µg/mL) |  |  |  | ~5 | antibody AB (antibody, human IgG1, V domains shown, Combination of the 2A6 VH heavy chain and the 2B6 VL light chain; human IgG1 lambda; also called VH2A6/VL2B6) VH: EVQLVESGGGLVKPGDSLTVSCVASGFTFSNYFIHWVRQAPGKGLEWVATISGRTKYMFYSDSLRGRFTVSRDNANNSVYLHMSSLRGEDTALYYCVRGYDHSDSNSAADLLHWGRGTLVTVSS VL: NFMLTQPHSVSESPGKTITISCTRGRGYIASYYVQWYQQRPGGVPKIVVFEDTQRPSGVPDRISGSIDTSTNSASLTISGLQTEDEADYYCQSYDDANHVIFGGGTKLTVL
4 |  |  |  |  |  |  | no binding (tested: 1.0 µg/mL) |  |  |  |  | antibody BA (antibody, human IgG1, V domains shown, Combination of the 2B6 VH heavy chain and the 2A6 VL light chain; human IgG1 lambda; also called VH2B6/VL2A6) VH: EVQLVESGGGLVKPGGSLRLSCAASGFPFSRYSMHWVRQAPGKGLEWVSSMTSRTNHKYYADSLKGRFLISRDNDRDSLYLEMNSLGVEDTAIYFCARGYDTSGSDSGVDFQYWGQGTLVTVSS VL: NFMLTQPLSVSGYPGKTIVISCVRSSGSVASHYVQWFQQRPGSAPAMVIYEDSHRPSGIPDRFSGSVDASSNSASLTISGLKTEDEADYFCQSYYGNNQVLFGGGTKLTVL
5 | ~7 | 21.7 | 5.23e-05 | 2.41e+06 |  |  |  |  |  |  | ~5 | antibody 2A6_Q (antibody, human IgG1, V domains shown, removes the N-glycosylation site of the VH; human IgG1 lambda; also called c2A6_Q) VH: EVQLVESGGGLVKPGDSLTVSCVASGFTFSNYFIHWVRQAPGKGLEWVATISGRTKYMFYSDSLRGRFTVSRDNAQNSVYLHMSSLRGEDTALYYCVRGYDHSDSNSAADLLHWGRGTLVTVSS VL: NFMLTQPLSVSGYPGKTIVISCVRSSGSVASHYVQWFQQRPGSAPAMVIYEDSHRPSGIPDRFSGSVDASSNSASLTISGLKTEDEADYFCQSYYGNNQVLFGGGTKLTVL
6 | ~7 | 22.3 | 5.17e-05 | 2.32e+06 |  |  |  |  |  |  | ~5 | antibody 2A6_A (antibody, human IgG1, V domains shown, removes the N-glycosylation site of the VH; human IgG1 lambda; also called c2A6_A) VH: EVQLVESGGGLVKPGDSLTVSCVASGFTFSNYFIHWVRQAPGKGLEWVATISGRTKYMFYSDSLRGRFTVSRDNAANSVYLHMSSLRGEDTALYYCVRGYDHSDSNSAADLLHWGRGTLVTVSS VL: NFMLTQPLSVSGYPGKTIVISCVRSSGSVASHYVQWFQQRPGSAPAMVIYEDSHRPSGIPDRFSGSVDASSNSASLTISGLKTEDEADYFCQSYYGNNQVLFGGGTKLTVL
7 | ~7 | 17.2 | 5.4e-05 | 3.13e+06 | 3.5 | 1020 | no binding (tested: 1.0 µg/mL) | 73.1 | 0.000108 | 1.48e+06 | ~5 | antibody 2B6 (antibody, human IgG1, V domains shown, Human IgG1 lambda) VH: EVQLVESGGGLVKPGGSLRLSCAASGFPFSRYSMHWVRQAPGKGLEWVSSMTSRTNHKYYADSLKGRFLISRDNDRDSLYLEMNSLGVEDTAIYFCARGYDTSGSDSGVDFQYWGQGTLVTVSS VL: NFMLTQPHSVSESPGKTITISCTRGRGYIASYYVQWYQQRPGGVPKIVVFEDTQRPSGVPDRISGSIDTSTNSASLTISGLQTEDEADYYCQSYDDANHVIFGGGTKLTVL
8 |  |  |  |  | 36.1 | 508 | no binding (tested: 1.0 µg/mL) | 317 | 0.000109 | 344000 |  | antibody 2F2 (antibody, human IgG1, V domains shown, Human IgG1 lambda) VH: EVQLVESGGGLVKPGESLRLACVASGFNFSDYYMTWIRQAPGKGLEWVSYISNSGSHTYYADAVKGRFTVSRDNAKNSLYLQMTSLRGEDTAIYFCARDPSIMRGTYYMDVWGKGTTVTVSS VL: QSVLTQPPSASGTPGQRVTISCSGSSSNIGTNPVSWYQQFPGMAPKLLIYFNNQRPSGVPERFSGSKSGTPASLAIGGLQSEDEANYYCASWDDTLNGLVFGGGTKLTVL
9 |  |  |  |  | 8.6 | 48.6 | no binding (tested: 1.0 µg/mL) | 261 | 0.000121 | 464000 |  | antibody 1E8 (antibody, human IgG1, V domains shown, Human IgG1 lambda) VH: EVQLLESGGGLVQPGGPLRLSCAASGFTFSIYSMNWVRQAPGKGLEWVSSISGSGDNTYYADSVKGRFTITRDSSKNTLYLQMNTLRAEDTAVYFCAKSGRNIISPGFDSWGQGTLVTVSS VL: QPVLTQPPSASASLGASVTLTCTLNSDYGDYKVDWYQQRPGKGPRFVMRVGTGGIVGSKGDGIPDRFSVLGSGLNRFLTIKNIQEEDESDYYCGADHGSANNFIWVFGGGTKLTVL
